Data taken from publication PMC4569481.

Target: Dihydrolipoamide dehydrogenase (Lpd) of P. aeruginosa, recombinant full length (Lpd^1-478) (P. aeruginosa strain PAO1) (UniProt Q9I3D1)
Test: ELISA; Lpd (5 μg/ml) coated on microtiter plates overnight at 4°C; vitronectin (0.01–12.5 μg/ml), recombinant vitronectin constructs (5 μg/ml) or clusterin (0.01–20 μg/ml) added 1 h at RT; detected with antibodies, absorbance at 492 nm

Dihydrolipoamide dehydrogenase (Lpd) of P. aeruginosa, recombinant full length (Lpd^1-478) (P. aeruginosa strain PAO1), sequence (Q9I3D1 whole entry): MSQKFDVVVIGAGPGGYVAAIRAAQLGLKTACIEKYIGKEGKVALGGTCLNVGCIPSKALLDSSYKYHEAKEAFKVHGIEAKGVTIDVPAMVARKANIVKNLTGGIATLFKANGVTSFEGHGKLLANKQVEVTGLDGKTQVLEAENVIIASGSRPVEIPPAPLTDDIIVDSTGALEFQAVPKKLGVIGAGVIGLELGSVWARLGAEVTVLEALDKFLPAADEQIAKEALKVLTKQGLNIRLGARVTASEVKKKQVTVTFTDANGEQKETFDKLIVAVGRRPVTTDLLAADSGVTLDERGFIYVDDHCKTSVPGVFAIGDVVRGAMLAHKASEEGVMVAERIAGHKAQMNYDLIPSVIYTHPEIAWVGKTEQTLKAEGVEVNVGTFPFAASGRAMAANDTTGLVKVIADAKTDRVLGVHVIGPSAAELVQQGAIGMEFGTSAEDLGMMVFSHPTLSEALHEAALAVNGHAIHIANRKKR

Q: With vitronectin^80-353 (domain or fragment) as the substance, how does the percent reduction of binding (ELISA signal; reference not named) read?
A: 70%
